Experiments:
NMDAR = NMDAR EPSCs in DCN cartwheel cells in brain slices, ZX1 potentiation; assay type: cell-based, mice; details: nimodipine 20 μM at least 20 minutes prior to recordings; ZX1 100 μM
GluN1/2A receptors = biological target: T1, GluN1/2A receptors (Rattus norvegicus, UniProt Q00959); assay: Zinc inhibition of glutamate-evoked currents in tSA201 cells transfected with GluN1/GluN2A; assay type: cell-based; details: vehicle, 1 mM glutamate steady-state current, read-out: IC50 for zinc block in vehicle treated cells
T1 construct: expressed in transfected cells; host or cells: human embryonic kidney tSA201 cells
T1 sequence (Q00959 23-1464, other chains not shown): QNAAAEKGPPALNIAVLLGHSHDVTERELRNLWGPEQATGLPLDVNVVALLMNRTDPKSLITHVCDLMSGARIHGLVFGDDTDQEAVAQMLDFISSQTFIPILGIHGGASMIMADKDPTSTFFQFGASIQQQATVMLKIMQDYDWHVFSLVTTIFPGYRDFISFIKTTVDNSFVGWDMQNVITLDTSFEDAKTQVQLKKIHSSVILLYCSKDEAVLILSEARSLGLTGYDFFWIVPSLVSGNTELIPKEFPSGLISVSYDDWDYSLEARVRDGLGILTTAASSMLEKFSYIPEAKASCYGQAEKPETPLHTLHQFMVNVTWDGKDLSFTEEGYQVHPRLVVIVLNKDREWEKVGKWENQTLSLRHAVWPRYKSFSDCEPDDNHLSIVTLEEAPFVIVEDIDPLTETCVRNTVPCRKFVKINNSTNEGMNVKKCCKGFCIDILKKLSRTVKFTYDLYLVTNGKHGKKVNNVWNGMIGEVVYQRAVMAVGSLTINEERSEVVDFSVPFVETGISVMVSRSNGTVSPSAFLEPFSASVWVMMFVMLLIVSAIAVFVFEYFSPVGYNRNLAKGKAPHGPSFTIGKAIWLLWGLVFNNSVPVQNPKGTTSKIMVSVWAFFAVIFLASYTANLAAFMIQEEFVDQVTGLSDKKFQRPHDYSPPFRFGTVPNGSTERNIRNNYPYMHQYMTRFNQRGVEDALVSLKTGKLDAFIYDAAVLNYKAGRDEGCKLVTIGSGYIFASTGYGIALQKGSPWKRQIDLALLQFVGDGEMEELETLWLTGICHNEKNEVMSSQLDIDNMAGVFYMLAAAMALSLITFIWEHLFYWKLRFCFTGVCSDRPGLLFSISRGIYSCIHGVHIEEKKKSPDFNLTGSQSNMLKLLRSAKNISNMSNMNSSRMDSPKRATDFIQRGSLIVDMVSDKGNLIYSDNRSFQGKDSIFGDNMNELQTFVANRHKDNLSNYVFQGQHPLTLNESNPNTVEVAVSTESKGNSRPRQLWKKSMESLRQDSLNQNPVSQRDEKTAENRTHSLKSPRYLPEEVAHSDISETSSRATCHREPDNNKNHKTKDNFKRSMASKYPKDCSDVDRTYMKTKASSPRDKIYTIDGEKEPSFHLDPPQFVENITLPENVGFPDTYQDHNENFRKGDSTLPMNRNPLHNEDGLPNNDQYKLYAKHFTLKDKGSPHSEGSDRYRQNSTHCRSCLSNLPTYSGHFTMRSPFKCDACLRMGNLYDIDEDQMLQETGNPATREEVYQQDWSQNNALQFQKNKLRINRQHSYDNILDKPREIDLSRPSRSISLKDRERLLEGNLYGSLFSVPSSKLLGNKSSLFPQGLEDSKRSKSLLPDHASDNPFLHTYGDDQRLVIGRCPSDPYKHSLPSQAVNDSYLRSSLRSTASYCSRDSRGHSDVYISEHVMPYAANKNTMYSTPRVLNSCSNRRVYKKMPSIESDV
Protocol: Human embryonic kidney tSA201 cells were maintained in DMEM supplemented with 10% fetal bovine serum and 1% GlutaMAX, as previously described (Glasgow and Johnson, 2014). Cells were plated in 35 mm petri dishes with three 15 mm glass coverslips treated with poly D-lysine (0.1 mg/ml) and rat-tail collagen (0.1 mg/ml) at a density of 1×10^5 cells/dish. Eighteen to 30 hours after plating, the cells were co-transfected using FuGENE 6 Transfection Reagent with cDNA encoding enhanced green fluorescent protein (eGFP), for identification of transfected cells, and WT rat NMDAR subunits GluN1-1a (GluN1; GenBank X63255) and GluN2A (GenBank M91561 in pcDNA1). GluN1-1 a and eGFP were expressed using a specialized pCl-neo vector with cDNA encoding eGFP inserted between the CMV promoter and the GluN1 open reading frame (Yi et al., 2018). […]
Whole-cell voltage-clamp recordings from tSA201 cells were performed 18-30 hours after transfection. […] Whole-cell currents were recorded using an Axopatch 200A patch-clamp amplifier (Molecular Devices), low-pass filtered at 5 kHz, and sampled at 20 kHz in pClamp10.7 (Molecular Devices). In all recordings from tSA201 cells, series resistance was compensated 85-90% and an empirically determined −6 mV liquid junction potential between the intracellular pipette solution and the extracellular recording solution was corrected. […]

[1] = biological target: ZnT1 in mouse brain slices (mouse) (UniProt Q60738); assay: cell-based or functional assay
[2] = biological target: T2, GluN2A subunit of NMDAR in rat cortical cultures (rat, UniProt Q00959 23-1464); assay: proximity ligation assay in rat cortical cultures (FIG. 3A legend)
T2 construct: whole, on cells; Endogenous protein in neurons, detected with a mouse anti-GluN2A antibody in the PLA
T2 sequence (Q00959 23-1464): as the sequence (Q00959 23-1464, other chains not shown) above

Molecule: COCCOC(=O)C1=C(C)NC(C)=C(C(=O)OC(C)C)C1c1cccc([N+](=O)[O-])c1 (centres unmarked) [Nimodipine, reference compound]
- ZX1 potentiation of NMDAR EPSCs in nimodipine-treated slices (NMDAR): 23.6±6.9%

Molecule: [Zn+2] [zinc]
- IC50 (GluN1/2A receptors): 21.8 ± 2.09 nM

Molecule: GluN2A subunit of NMDAR in mouse brain slices (from UniProt P35436 23-1464) (receptor)
- Average effect of ZX1 on L2/3 PN NMDAR Lev-EPSCs amplitudes normalized to control, auditory cortex slices incubated with scramble [1]: 159%
- Average effect of ZX1 on L2/3 PN NMDAR Lev-EPSCs amplitudes normalized to control, auditory cortex slices incubated with the peptide [1]: 99%
- ZX1 potentiation of NMDAR EPSCs, DCN cartwheel cells, 100 Hz, slices treated with N2AZ [1]: 1.95%
- ZX1 potentiation of NMDAR-mediated synaptic currents, DCN cartwheel cells, 20 Hz, slices treated with N2AZ (3 µM) [1]: 19.4%
- ZX1 potentiation of NMDAR-mediated synaptic currents, DCN cartwheel cells, 20 Hz, slices treated with scN2AZ (3 µM) [1]: 47.3%

B1: ZnT1 in rat cortical cultures (other, UniProt Q62720 1-507, looked up)
chain: MGCWGRNRGRLLCMLLLTFMFMVLEVVVSRVTASLAMLSDSFHMLSDVLALVVALVAERFARRTHATQKNTFGWIRAEVMGALVNAIFLTGLCFAILLEAVERFIEPHEMQQPLVVLSVGVAGLLVNVLGLCLFHHHSGEGQGAGHGHSHGHGHGHLAKGARKAGRAGGEAGAPPGRAPDQEPDQEETNTLVANTSNSNGLKADQAEPEKLRSDDPVDVQVNGNLIQESDSLESEDNRAGQLNMRGVFLHVLGDALGSVIVVVNALVFYFSWKGCTEDDFCVNPCFPDPCKSSVELMNSTQAPMHEAGPCWVLYLDPTLCIIMVCILLYTTYPLLKESALILLQTVPKQIDIKHLVKELRDVEGVEEVHELHVWQLAGSRIIATAHIKCEDPASYMQVAKTIKDVFHNHGIHATTIQPEFASVGSKSSVVPCELACRTQCALKQCCGTRPQVHSGKEAEKAPTVSISCLELSENLEKKPRRTKAEGSVPAVVIEIKNVPNKQPESSL
notes: whole, on cells; Endogenous protein in neurons, detected with a rabbit anti-ZnT1 antibody in the PLA; also called zinc transporter 1
- binding result [2]: binds

— patent publication US20230034660A1, “PEPTIDES THAT ENHANCE NMDA RECEPTOR FUNCTION AND USE THEREOF” (University of Pittsburgh - Of the Commonwealth System of …, priority 2019, published 2023)
